Results from paper PMC11681865, “Oligomerization of protein arginine methyltransferase 1 and its functional impact on substrate arginine methylation” (The Journal of Biological Chemistry, 2024).

Tests used:
PRMT1-WT = biological target: T1, PRMT1-WT (Homo sapiens, UniProt Q99873); assay: Radiometric filter-binding assay, PRMT1-WT activity in presence of inactive PRMT1 mutants; assay type: biochemical; details: 0.05 μM PRMT1-WT, mutant 20 min on ice, 50 μM peptide, 2 μM [3H]-SAM and 48 μM SAM, 30 min
T1 construct: His-MBP (N, cleaved yes); made in house; host or cells: Escherichia coli BL21 (DE3) RIPL
T1 sequence (Q99873 11-353 isoform Q99873-3): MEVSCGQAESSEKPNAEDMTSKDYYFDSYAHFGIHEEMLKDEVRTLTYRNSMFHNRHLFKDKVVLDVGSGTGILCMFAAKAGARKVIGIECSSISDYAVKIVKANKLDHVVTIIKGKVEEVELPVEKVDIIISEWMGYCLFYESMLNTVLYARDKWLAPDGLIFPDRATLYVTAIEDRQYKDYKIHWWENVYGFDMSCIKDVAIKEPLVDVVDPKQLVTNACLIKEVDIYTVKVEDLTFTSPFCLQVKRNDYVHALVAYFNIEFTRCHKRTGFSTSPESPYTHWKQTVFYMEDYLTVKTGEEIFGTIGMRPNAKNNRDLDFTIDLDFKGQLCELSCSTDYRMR
Excerpt: (§1) Constant PRMT1-WT concentration and various PRMT1-E153Q concentrations were maintained in the aqueous buffer prior to adding peptide and SAM to initiate the reaction. The reaction was quenched with isopropanol. The reaction mixture was loaded on the P81 filter paper that was air dried, washed, and immersed in scintillation cocktail for scintillation counting. […] To eliminate this possibility, we created a double mutant (PRMT1-H293G/E153Q) to further abolish PRMT1 activity. […] We then tested PRMT1-WT activity in the presence of various concentrations of PRMT1-H293G/E153Q (Fig. 7, G–L). […] These increasing trends were the same as that of PRMT1-E153Q. […] Again, similar to Figure 6, D–F, the increase in kcat started to slow down a bit at >1 μM concentrations of PRMT1-E153Q or PRMT1-H293G/E153Q, which is likely due to substrate overconsumption under these conditions.
Figure 7 Arginine methylation of various peptides by high-order oligomeric PRMT1-WT and PRMT1 mutants. Filter-binding assay was used to characterize the methyltransferase activity. Firstly, 0.05 μM of PRMT1 was incubated with various concentrations of PRMT1-E153Q or PRMT1-H293G/E153Q on ice for 20 min. Afterward, 2 μM radioactive [3H]-SAM and 48 μM SAM and 50 μM of indicated peptides was added and incubated for 30 min before quenching the reaction with 100% isopropanol. […]

R4 peptide = assay: Radiometric methyltransferase activity of PRMT1 mutants on R4 peptide; assay type: biochemical; details: various mutant concentrations, 50 μM peptide, 2 μM [3H]-SAM and 48 μM SAM, 30 min
Excerpt: as §1
To perform PRMT1 and PRMT1 mutants (PRMT1-E153Q and PRMT1-H293G/E153Q) concentration-dependent measurement, each reaction contained various concentration of PRMT1 or PRMT1 mutant, 50 μM of peptide, and 50 μM SAM (48 μM cold and […] ^3H-SAM). The reaction buffer consisted of 50 mM Hepes pH 8.0, 10 mM NaCl, 0.5 mM EDTA, and 0.5 mM DTT. The reaction was incubated at room temperature for 30 min after being initiated with ^3H-SAM SAM. An equal amount of 100% isopropanol to the total reaction volume was used to quench the reaction. […]

Substance: PRMT1-H293G/E153Q: double mutant created to further abolish PRMT1 activity
- kcat of PRMT1-WT (CPM / PRMT1-WT concentration) in presence of mutant (PRMT1-WT): increased as a function of PRMT1-H293G/E153Q concentration
- methylated product amount (CPM) of PRMT1-WT in presence of mutant (PRMT1-WT): gradually went up as the concentrations of the double mutant increased
- methyltransferase activity of PRMT1 mutant (R4 peptide): even weaker than PRMT1-E153Q, greatly diminished to near background level
